The values below come from US20180194839A1 (Novartis, published 2018).

Numbering of substitutions follows the chain as printed. Names and notes keep the numbering of the source.

The target in experiment [1] is T1, recombinant mouse IL-17F (R&D Systems Cat#2057-IL/CF) (mouse, UniProt Q7TNI7 29-161).
T1 construct: also called mIL-17F
T1 sequence (looked up): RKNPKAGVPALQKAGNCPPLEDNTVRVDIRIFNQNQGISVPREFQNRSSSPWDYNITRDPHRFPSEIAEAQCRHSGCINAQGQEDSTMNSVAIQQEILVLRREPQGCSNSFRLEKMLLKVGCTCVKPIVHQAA
Put plainly: ELISA, coated cytokine.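 Also: antibodies incubated 3 h at room temperature on cytokine-coated plates, binding read out with alkaline phosphatase-conjugated anti-species IgG secondary antibodies.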 On the technique in general: In an ELISA, binding on a coated surface is turned into a signal by an enzyme label.

The target of experiment [2] is T2, recombinant human IL-1β (Novartis) (human, UniProt P01584 117-269).
T2 construct: also called huIL1β
Description: ELISA, coated cytokine.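 Also: antibodies incubated 3 h at room temperature on cytokine-coated plates, binding read out with alkaline phosphatase-conjugated anti-species IgG secondary antibodies.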

The target in experiment [3] is T3, recombinant human IL-3 (R&D Systems Cat#203-IL/CF) (human, UniProt P08700 20-152).
T3 construct: also called huIL-3
T3 sequence (looked up): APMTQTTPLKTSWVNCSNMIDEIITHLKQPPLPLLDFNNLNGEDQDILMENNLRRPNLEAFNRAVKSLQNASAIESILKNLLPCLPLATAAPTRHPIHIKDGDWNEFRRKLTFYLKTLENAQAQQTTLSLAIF
Description: ELISA, coated cytokine.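 Also: antibodies incubated 3 h at room temperature on cytokine-coated plates, binding read out with alkaline phosphatase-conjugated anti-species IgG secondary antibodies.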

Experiment [4] has as its target T4, recombinant human IL-12 (R&D Systems Cat#219-IL-005/CF) (human, UniProt P29459 23-219; P29460 23-328).
T4 construct: also called huIL-12
T4 sequence (looked up) 1: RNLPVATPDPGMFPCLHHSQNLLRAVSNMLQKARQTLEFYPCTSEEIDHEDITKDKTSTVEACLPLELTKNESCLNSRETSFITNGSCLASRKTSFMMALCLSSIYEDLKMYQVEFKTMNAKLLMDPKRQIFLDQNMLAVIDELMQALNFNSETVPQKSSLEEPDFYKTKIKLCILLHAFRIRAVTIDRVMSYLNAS
T4 sequence (looked up) 2: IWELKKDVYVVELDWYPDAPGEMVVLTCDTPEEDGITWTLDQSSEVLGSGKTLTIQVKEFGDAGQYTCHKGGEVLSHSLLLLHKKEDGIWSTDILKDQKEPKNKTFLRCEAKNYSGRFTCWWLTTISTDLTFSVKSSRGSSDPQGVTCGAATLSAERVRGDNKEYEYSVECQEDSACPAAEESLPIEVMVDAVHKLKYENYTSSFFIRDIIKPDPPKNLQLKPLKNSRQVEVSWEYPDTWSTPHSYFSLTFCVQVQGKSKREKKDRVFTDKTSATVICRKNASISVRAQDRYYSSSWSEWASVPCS
Description: ELISA, coated cytokine.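 Also: antibodies incubated 3 h at room temperature on cytokine-coated plates, binding read out with alkaline phosphatase-conjugated anti-species IgG secondary antibodies.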

Experiment [5] concerns the target T5, recombinant mouse IL-12 (R&D Systems Cat#419-ML-010/CF) (mouse, UniProt P43431 23-215; P43432 23-335).
T5 construct: coated at 0.5 µg/ml; also called mIL-12
T5 sequence (looked up) 1: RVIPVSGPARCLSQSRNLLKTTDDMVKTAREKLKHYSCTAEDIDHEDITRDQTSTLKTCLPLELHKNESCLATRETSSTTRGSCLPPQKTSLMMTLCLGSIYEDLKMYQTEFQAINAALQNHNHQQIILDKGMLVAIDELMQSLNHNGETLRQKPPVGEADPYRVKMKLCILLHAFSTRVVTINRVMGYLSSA
T5 sequence (looked up) 2: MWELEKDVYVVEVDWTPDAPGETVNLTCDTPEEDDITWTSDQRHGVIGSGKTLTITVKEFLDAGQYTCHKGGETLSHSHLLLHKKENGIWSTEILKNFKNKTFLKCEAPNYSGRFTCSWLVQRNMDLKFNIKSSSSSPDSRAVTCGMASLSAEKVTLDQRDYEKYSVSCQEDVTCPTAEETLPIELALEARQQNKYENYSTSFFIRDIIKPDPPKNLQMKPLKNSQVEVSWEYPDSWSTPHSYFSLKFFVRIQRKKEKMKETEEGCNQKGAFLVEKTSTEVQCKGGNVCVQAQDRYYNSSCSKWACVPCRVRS
Put plainly: ELISA, coated cytokine.

Experiment [6] concerns the target T6, recombinant human IL-17F (SEQ ID NO: 77) (human, UniProt Q96PD4 31-163).
T6 construct: homodimer; also called huIL-17F; rhuIL-17F
T6 sequence: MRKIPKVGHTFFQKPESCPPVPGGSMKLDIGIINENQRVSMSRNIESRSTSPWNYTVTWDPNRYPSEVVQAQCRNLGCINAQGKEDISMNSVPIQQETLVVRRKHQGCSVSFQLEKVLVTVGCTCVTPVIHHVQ
Put plainly: ELISA, coated antigen, Ab 1 µg/ml.

Experiment [7] deals with T7, recombinant cynomolgus IL-17A (SEQ ID NO: 79) (cynomolgus monkey, UniProt Q16552 24-155 (human entry), limits assumed).
T7 construct: also called cynoIL-17A; cyno IL-17A
T7 chain: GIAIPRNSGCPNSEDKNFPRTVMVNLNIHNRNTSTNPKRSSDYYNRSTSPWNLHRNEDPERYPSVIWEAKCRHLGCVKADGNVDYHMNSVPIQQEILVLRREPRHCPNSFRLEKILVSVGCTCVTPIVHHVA
Description: ELISA, coated antigen, Ab 1 µg/ml.

The target of experiment [8] is T8, recombinant cynomolgus IL-17F (SEQ ID NO: 80) (cynomolgus monkey, UniProt Q96PD4 31-163 (human entry), limits assumed).
T8 construct: also called cynoIL-17F; cyno IL-17F
T8 chain: T6 sequence with G23E, I30T, R74K, N75H, V101L, I130V
Description: ELISA, coated antigen, Ab 1 µg/ml.

The target in experiment [9] is T9, recombinant rat IL-17A (SEQ ID NO: 85) (rat, UniProt Q61453 18-150).
T9 construct: also called rratIL-17A; rIL-17A
T9 sequence: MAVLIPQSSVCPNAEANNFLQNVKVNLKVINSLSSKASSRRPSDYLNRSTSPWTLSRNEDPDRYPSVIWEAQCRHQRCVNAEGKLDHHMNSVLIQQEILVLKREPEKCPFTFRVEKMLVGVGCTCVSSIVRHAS
Description: ELISA, coated antigen, Ab 1 µg/ml.

The target of experiment [10] is T6, recombinant human IL-17F (SEQ ID NO: 77). Description: ELISA, coated cytokine, Ab 10 µg/ml.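 Also: antibodies incubated 3 h at room temperature on the coated wells, binding detected with alkaline phosphatase-conjugated anti-IgG secondary antibodies matching the species of each test antibody.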
In experiment [11] the target is T10, recombinant human IL-23 (R&D Systems Cat#1290-IL-010/CF) (human, UniProt Q9NPF7 20-189; P29460 23-328).
T10 construct: also called huIL-23
T10 sequence (looked up) 1: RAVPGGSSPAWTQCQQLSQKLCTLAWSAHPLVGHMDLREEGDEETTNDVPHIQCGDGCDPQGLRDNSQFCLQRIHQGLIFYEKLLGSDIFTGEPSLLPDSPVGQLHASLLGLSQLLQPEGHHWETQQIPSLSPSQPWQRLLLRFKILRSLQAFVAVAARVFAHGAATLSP
T10 sequence (looked up) 2: T4 sequence (looked up) 2
Put plainly: ELISA, coated cytokine.

B1: XAB4 (antibody, human IgG1, kappa, V domains shown)
VH: EVQLVESGGDLVQPGGSLRLSCAASGFTFSSYWMSWVRQAPGKGLEWVANIKQDGSEKYYVDSVKGRFTISRDNAKNSLYLQMNSLRAEDTAVYYCARDRGSLYYWGQGTLVTVSS
VL: AIQLTQSPSSLSASVGDRVTITCRPSQGINWELAWYQQKPGKAPKLLIYDASSLEQGVPSRFSGSGSGTDFTLTISSLQPEDFATYYCQQFNSYPLTFGGGTKVEIKR
notes: also called MB435 N56Q
Consider B1, for which the binding result in experiment [1], in experiment [2], in experiment [3], in [4] and in experiment [5] was “no binding (tested: 10 µg/ml)” in each case. Moreover, the O.D. in experiment [6] was 0.049 O.D; in experiment [7] it was 1.93 O.D; in [8], 0.085 O.D; in experiment [9] it was 1.77 O.D; in [10] it was 0.035 O.D.

B2: XAB1 (antibody, human IgG1, kappa, V domains shown)
VH: B1 VH
VL: B1 VL with N30I, W31S, E32A, Q56N
notes: human IgG1/kappa monoclonal antibody; also called parental XAB1; XAB1 IgG
As for B2, the binding result in experiment [11] is recorded as “no binding (tested: 10 µg/ml)”.
